Experimental data reported in IntAct's records for PubMed 22056771.

B1: Autophagy-related protein 8 (Saccharomyces cerevisiae), P38182 (parent)
chain: MKSTFKSEYPFEKRKAESERIADRFKNRIPVICEKAEKSDIPEIDKRKYLVPADLTVGQFVYVIRKRIMLPPEKAIFIFVNDTLPPTAALMSAIYQEHKDKDGFLYVTYSGENTFGR
partner: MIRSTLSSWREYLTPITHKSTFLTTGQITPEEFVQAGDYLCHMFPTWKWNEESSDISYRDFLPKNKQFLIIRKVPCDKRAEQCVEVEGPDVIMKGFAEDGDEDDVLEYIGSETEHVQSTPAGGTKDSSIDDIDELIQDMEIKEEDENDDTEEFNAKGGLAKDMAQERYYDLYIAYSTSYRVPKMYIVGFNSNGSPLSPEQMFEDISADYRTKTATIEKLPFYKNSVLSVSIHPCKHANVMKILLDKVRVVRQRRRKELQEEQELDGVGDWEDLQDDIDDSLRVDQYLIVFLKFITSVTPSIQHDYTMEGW
B2: Ubiquitin-like modifier-activating enzyme ATG7 (Saccharomyces cerevisiae), P38862 (parent)
chain: MSSERVLSYAPAFKSFLDTSFFQELSRLKLDVLKLDSTCQPLTVNLDLHNIPKSADQVPLFLTNRSFEKHNNKRTNEVPLQGSIFNFNVLDEFKNLDKQLFLHQRALECWEDGIKDINKCVSFVIISFADLKKYRFYYWLGVPCFQRPSSTVLHVRPEPSLKGLFSKCQKWFDVNYSKWVCILDADDEIVNYDKCIIRKTKVLAIRDTSTMENVPSALTKNFLSVLQYDVPDLIDFKLLIIRQNEGSFALNATFASIDPQSSSSNPDMKVSGWERNVQGKLAPRVVDLSSLLDPLKIADQSVDLNLKLMKWRILPDLNLDIIKNTKVLLLGAGTLGCYVSRALIAWGVRKITFVDNGTVSYSNPVRQALYNFEDCGKPKAELAAASLKRIFPLMDATGVKLSIPMIGHKLVNEEAQHKDFDRLRALIKEHDIIFLLVDSRESRWLPSLLSNIENKTVINAALGFDSYLVMRHGNRDEQSSKQLGCYFCHDVVAPTDSLTDRTLDQMCTVTRPGVAMMASSLAVELMTSLLQTKYSGSETTVLGDIPHQIRGFLHNFSILKLETPAYEHCPACSPKVIEAFTDLGWEFVKKALEHPLYLEEISGLSVIKQEVERLGNDVFEWEDDESDEIA
partner: B1 chain
B3: Autophagy-related protein 8 (Saccharomyces cerevisiae), P38182 (parent)
chain: B1 chain
partner: B2 chain

Variants of: B1
Details: with atg3_yeast ATG3, P40344
Y62K was tested, and the “effect of a mutation on the interaction” value was “disrupting interaction”.

Variants of: B2
Details: with atg8_yeast ATG8, P38182
In the case of E612Q, the “effect of a mutation on the interaction” value is reported as “decreasing interaction strength”.
E612R was tested, and the “effect of a mutation on the interaction” value was “decreasing interaction strength”.
In the case of E612A, the “effect of a mutation on the interaction” value is reported as “decreasing interaction strength”.

Variants of: B3
Details: with atg7_yeast ATG7, P38862
In the case of K66A, the “effect of a mutation on the interaction” value is reported as “decreasing interaction strength”.
For K66E, the “effect of a mutation on the interaction” value was “decreasing interaction strength”.
For Y62K, the “effect of a mutation on the interaction” value was “disrupting interaction strength”.
For Y62A, the “effect of a mutation on the interaction” value was “disrupting interaction strength”.
In the case of Y62A;K66A, the “effect of a mutation on the interaction” value is reported as “disrupting interaction”.

Variants of: B3
Details: with atg7_yeast ATG7, P38862
Remark: another data set of the same source
With Y62K the “effect of a mutation on the interaction” value was “disrupting interaction”.
